Among the data in paper PMC7042235 are Kd values, retold here.

This test deals with microtubules (polymerized porcine tubulin) (porcine) (UniProt P02550). Kind of test: co-sedimentation; purified MTBDs (1-32 uM) mixed with 5 uM paclitaxel-stabilised porcine MTs; 100 mM PIPES pH 6.8, 50 mM NaCl, 2 mM MgCl2, 1 mM EGTA; 210,000 x g, 25 °C, 10 min; pellets on SDS-PAGE, densitometry, one-site curve fitting.

Regarding “MTBD-High, MTBD(I3101C/V3222C) (from UniProt P36022 3096-3232) (domain or fragment)”, the Kd (commonly a measure of binding affinity in units of concentration) came out at 4.8 µM. This counts as single-digit micromolar.
